PMC10384591, “Multi-Enzymatic Cascade for Efficient Deracemization of DL-Pantolactone into D-Pantolactone” (Molecules, 2023)

What was measured:
CduCPR = molecular target: T1, CduCPR (Candida dubliniensis, UniProt B9WJQ5); assay: whole-cell reduction to D-pantolactone; format: cell-based; conditions: E. coli cells co-expressing EsGDH
T1 construct: gene CPR-C2; pACYCDuet-1, co-expressed with EsGDH in E. coli BL21(DE3) cells
T1 sequence (B9WJQ5 1-309): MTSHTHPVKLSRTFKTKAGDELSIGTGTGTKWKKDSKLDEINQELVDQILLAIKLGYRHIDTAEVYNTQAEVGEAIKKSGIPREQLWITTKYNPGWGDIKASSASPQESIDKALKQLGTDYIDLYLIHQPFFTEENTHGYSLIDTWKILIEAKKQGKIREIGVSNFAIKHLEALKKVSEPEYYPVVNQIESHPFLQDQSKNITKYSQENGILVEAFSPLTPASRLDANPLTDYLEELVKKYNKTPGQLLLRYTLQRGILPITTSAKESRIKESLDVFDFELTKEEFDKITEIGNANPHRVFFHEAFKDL

ZpaCPR = system: T2, ZpaCPR; assay: NADPH oxidation, absorbance […] nm, Michaelis-Menten fit; format: biochemical, Zygosaccharomyces parabailii; conditions: 0.15 mM NADPH, 200 mM PBS pH 5.5, 45 °C
T2 construct: gene CPR; pET28a, codon-optimized synthetic gene, E. coli BL21(DE3), Ni-NTA purified

NasLPLDH = molecular target: T3, NasLPLDH (Nocardia asteroides, UniProt U5EKS1); assay: substrate specificity, dehydrogenation by recombinant enzyme; format: cell-based; conditions: recombinant E. coli BL21(DE3); FMN-dependent
T3 construct: gene NCAST_32_01610; pET28a, codon-optimized synthetic gene, E. coli BL21(DE3)
T3 sequence (U5EKS1 1-404): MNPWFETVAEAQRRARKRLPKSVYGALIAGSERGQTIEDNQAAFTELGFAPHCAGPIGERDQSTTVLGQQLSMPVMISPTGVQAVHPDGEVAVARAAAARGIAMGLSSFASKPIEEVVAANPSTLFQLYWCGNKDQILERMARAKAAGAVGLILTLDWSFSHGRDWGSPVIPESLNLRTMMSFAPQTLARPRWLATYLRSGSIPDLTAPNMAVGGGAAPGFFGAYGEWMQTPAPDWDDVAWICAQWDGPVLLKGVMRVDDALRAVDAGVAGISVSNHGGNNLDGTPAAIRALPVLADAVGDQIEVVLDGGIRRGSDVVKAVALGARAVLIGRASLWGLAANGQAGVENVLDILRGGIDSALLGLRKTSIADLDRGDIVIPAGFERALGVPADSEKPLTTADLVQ

purified protein = substrate: CC1(C)COC(=O)[C@H]1O; assay: purified protein; format: biochemical, Amycolatopsis methanolica; conditions: 0.15 mM FMN, 200 mM PBS pH 8.0, 30 °C

`CC1(C)COC(=O)C1=O` [ketopantolactone] was tested, and the “whole-cell reduction to D-pantolactone” value (CduCPR) was “used to catalyze the reduction of ketopantolactone, affording the single D-enantiomer” and the Km (ZpaCPR) was 3.65 ± 0.58 mM.

For `CC1(C)COC(=O)[C@H]1O` [L-pantolactone], the “substrate specificity, dehydrogenation by recombinant enzyme” value (NasLPLDH) was “all five LPLDHs showed the capacity to catalyze the dehydrogenation of L-pantolactone but not D-pantolactone”.

B1: AmeLPLDH (Amycolatopsis methanolica 239) (protein)
chain: MSNGWFETVAEAQRRARKRLPKSVYGALVAGSERGITVDDNIAAFAELGFAPHVAGLSDKRELGTTVMGQPISLPVVISPTGVQAVHPDGEVAVARAAAARGTAMGLSSFASKSIEEVAAANPQTFFQMYWVGSRDVLVQRMERARAAGAVGLIMTLDWSFSTGRDWGSPVIPEKLDLKAMARFAPEGITRPKWLWDFAKTRKLPDLTTPNLTPPGGTAPTFFGAYGEWMQTPLPTWEDVAWLREQWGGPFMLKGVMRVDDAKRAVDAGVTAISVSNHGGNNLDGTPAPIRALPAIADAVGGDVEVLLDGGIRRGSDVVKAIALGAKAVLIGRAYLWGLAANGQAGVENVLDILRGGIDSAVLGLGKTSIHELTRDDVVIPPGFERALGVPKS
notes: pET28a, codon-optimized synthetic gene, E. coli BL21(DE3), Ni-NTA purified, Brij 35 solubilised
B1 gave a Km (purified protein) of 0.57 ± 0.04 mM, a Vmax (purified protein) of 52.5 µmol/min/mg and a kcat (purified protein) of 36.41 ± 0.29 s⁻¹. It also gave a kcat/Km (purified protein) of 63850 ± 510 M⁻¹ s⁻¹.
